Publication PMC10729150 (Journal for Immunotherapy of Cancer, 2023)

Tests used:
[1] = target: T1, Recombinant human CTLA-4-Fc (human, UniProt P16410); experiment: SPR
[2] = target: T1, Recombinant human CTLA-4-Fc; experiment: ELISA

T1 sequence (P16410 36-161): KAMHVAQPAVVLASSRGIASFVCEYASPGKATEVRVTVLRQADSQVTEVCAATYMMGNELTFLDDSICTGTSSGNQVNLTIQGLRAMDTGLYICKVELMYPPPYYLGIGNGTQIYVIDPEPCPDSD

| Kd [1] | Kd [2] | Binder |
| --- | --- | --- |
| 0.091 nM | 0.16 nM | XTX100 (antibody, V domains shown) VH: QVQLVQSGAEVKKPGSSVKVSCKASGYTFTNYFMNWVRQAPGQGLEWMGRVDPEQGRADYAEKFKKRVTITADKSTSTAYMELSSLRSEDTAVYYCARRAMDNYGFAYWGQGTLVTVSS VL: EIVLTQSPDFQSVTPKEKVTITCSANSALSYMYWYQQKPDQSPKLWVHGTSNLASGVPSRFSGSGSGTDFTLTINSLEAEDAATYYCHHWSNTQWTFGGGTKVEIK |
| 0.127 nM | 0.24 nM | XTX101+MMP (proteolytically activated XTX101) (antibody, V domains shown) VH: QVQLVQSGAEVKKPGSSVKVSCKASGYTFTNYFMNWVRQAPGQGLEWMGRVDPEQGRADYAEKFKKRVTITADKSTSTAYMELSSLRSEDTAVYYCARRAMDNYGFAYWGQGTLVTVSS VL: EIVLTQSPDFQSVTPKEKVTITCSANSALSYMYWYQQKPDQSPKLWVHGTSNLASGVPSRFSGSGSGTDFTLTINSLEAEDAATYYCHHWSNTQWTFGGGTKVEIK |
